We go through 2 sequences from paper PMC4521836.

Read-outs that look alike come from different tables or passages of the source.

The series concerns the target T1, IscR (Pseudomonas aeruginosa PAO1) (UniProt Q9HXI7).
T1 sequence: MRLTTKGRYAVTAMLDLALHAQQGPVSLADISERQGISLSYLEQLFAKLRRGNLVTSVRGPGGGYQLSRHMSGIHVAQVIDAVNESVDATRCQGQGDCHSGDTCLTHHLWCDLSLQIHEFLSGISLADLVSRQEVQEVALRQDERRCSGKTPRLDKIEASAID
In words: EMSA. A general note: Mobility shift assays separate free from complexed probe on a gel.

Regarding “GTCAACCGCAAGCGCTGATCGGCCGCTGGCTATCCCCGTCAGCGGGGATAGCCACAAGCCTTGCGGGTGTTTCTGCCGGGTGCTTTGCGGGACACTAGGGGAGTATCGGTATCCGGAGCGGACCATGACCGCCAGCGAAGAGAAATTCACCCGCCAGACGCTGCTCGACGTGCAGCCTCTGACT (double strand) [fprB promoter fragment (native), 184 bp]”, the binding result (20 mM Tris-HCl pH 8.0, 50 mM KCl, 4 mM MgCl2, 0.5 mM EDTA, 0.02 mg/ml BSA, 5 mM DTT, 10% glycerol, 200 ng poly(dI-dC), 3 fmol probe in 25 ul, 25 C 20 min, 7% …) is listed as “binds”.

“GTCAACCGCAAGCGCTGATCGGCCGCTGGCTATCCCCGTCAGCGGGGATATTTACAAGCCTTGCGGGTGTTTCTGCCGGGTGCTTTGCGGGACACTAGGGGAGTATCGGTATCCGGAGCGGACCATGACCGCCAGCGAAGAGAAATTCACCCGCCAGACGCTGCTCGACGTGCAGCCTCTGACT (double strand) [fprB promoter fragment, IscR site GCC to TTT]”: the binding result is given as “no binding”.
